Results from patent US20210040177A1 (IMUNEXUS, published 2021).
Read-outs that look alike come from different tables or passages of the source. One block for each binder: values may come before it.

Columns and labels:
[1] = molecular target: T1, B7-1-Fc (R&D Systems Cat #140-B1) (UniProt P33681 35-242); assay: SPR (Biacore X100); molecule captured on biotin-lysozyme, B7-1-Fc as analyte
T1 construct: Bought reagent; also called CD80; not shown: Fc part of the bought fusion
T1 sequence (looked up): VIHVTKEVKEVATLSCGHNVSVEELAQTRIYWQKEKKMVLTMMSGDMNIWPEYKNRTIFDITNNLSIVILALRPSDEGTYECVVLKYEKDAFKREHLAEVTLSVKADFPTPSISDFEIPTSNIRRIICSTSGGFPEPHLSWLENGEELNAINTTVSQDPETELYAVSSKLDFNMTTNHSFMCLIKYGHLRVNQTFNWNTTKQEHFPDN

[2] = molecular target: T1, B7-1-Fc (R&D Systems Cat #140-B1); assay: as above; remark: listed apart in the source
Procedure: The theoretical maximum binding signal for the analyte (Rmax) was calculated based on the amount of captured IgG-VLD protein, accounting for the molecular weight of the analyte and ligand.

[3] = molecular target: T1, B7-1-Fc (R&D Systems Cat #140-B1); assay: BLItz bio-layer interferometry; D1.3 IgG held on immobilised lysozyme, B7-1-Fc added at Point 1, buffer at Point 2
Source text: At Point 2, B7-1-Fc was replaced with Buffer. […] At Point 2, B7-1-Fc was replaced with Buffer.

B1: D1.3 Fab-VLDx1 (LC) (bispecific antibody)
heavy: EVKLQESGPGLVAPSQSLSITCTVSGFSLTGYGVNWVRQPPGKGLEWLGMIWGDGNTDYNSALKSRLSISKDNSKSQVFLKMNSLHTDDTARYYCARERDYRLDYWGQGTTVTVSSASTKGPSVFPLAPSSKSTSGGTAALGCLVKDYFPEPVTVSWNSGALTSGVHTFPAVLQSSGLYSLSSVVTVPSSSLGTQTYICNVNHKPSNTKVDKRVEPKSCAAAGLGGHHHHHHGAAEQKLISEEDL
light: DIELTQSPASLSASVGETVTITCRASGNIHNYLAWYQQKQGKSPQLLVYYTTTLADGVPSRFSGSGSGTQYSLKINSLQPEDFGSYYCQHFWSTPRTFGGGTKLELKRTVAAPSVFIFPPSDEQLKSGTASVVCLLNNFYPREAKVQWKVDNALQSGNSQESVTEQDSKDSTYSLSSTLTLSKADYEKHKVYACEVTHQGLSSPVTKSFNRGECSGGGGSGGGGSGGGGSGGGGSKAMHVAQPAVVLASSRGIASFVCEYASPGKYTEVRVTVLRQADSQVTEVCAATYMTGNELTFLDDSICTGTSSGNQVNLTIQGLRAMDTGLYICKVELMYPPPYYLGIGNGTQIYVIDPEPSPDSN
notes: also called D1.3 VLDx1 (LC); D1.3 Fab-VLDx1 (CL)
Kd [1]: 13.6 nM | koff [1]: 0.00296 s⁻¹ | kon [1]: 218000 M⁻¹ s⁻¹

B3: D1.3 Fab-VLDx2 (HC+LC) (bispecific antibody)
heavy: EVKLQESGPGLVAPSQSLSITCTVSGFSLTGYGVNWVRQPPGKGLEWLGMIWGDGNTDYNSALKSRLSISKDNSKSQVFLKMNSLHTDDTARYYCARERDYRLDYWGQGTTVTVSSASTKGPSVFPLAPSSKSTSGGTAALGCLVKDYFPEPVTVSWNSGALTSGVHTFPAVLQSSGLYSLSSVVTVPSSSLGTQTYICNVNHKPSNTKVDKKVEPKSCSGGGGSGGGGSGGGGSGGGGSKAMHVAQPAVVLASSRGIASFVCEYASPGKYTEVRVTVLRQADSQVTEVCAATYMTGNELTFLDDSICTGTSSGNQVNLTIQGLRAMDTGLYICKVELMYPPPYYLGIGNGTQIYVIDPEPSPDSN
light: DIELTQSPASLSASVGETVTITCRASGNIHNYLAWYQQKQGKSPQLLVYYTTTLADGVPSRFSGSGSGTQYSLKINSLQPEDFGSYYCQHFWSTPRTFGGGTKLELKRTVAAPSVFIFPPSDEQLKSGTASVVCLLNNFYPREAKVQWKVDNALQSGNSQESVTEQDSKDSTYSLSSTLTLSKADYEKHKVYACEVTHQGLSSPVTKSFNRGECSGGGGSGGGGSGGGGSGGGGSKAMHVAQPAVVLASSRGIASFVCEYASPGKYTEVRVTVLRQADSQVTEVCAATYMTGNELTFLDDSICTGTSSGNQVNLTIQGLRAMDTGLYICKVELMYPPPYYLGIGNGTQIYVIDPEPSPDSN
notes: also called D1.3 VLDx2 (HC+LC); D1.3 Fab-VLDx2 (LC+HC)
Kd [1]: 9.73 nM | koff [1]: 0.00433 s⁻¹ | kon [1]: 445000 M⁻¹ s⁻¹

B6: D1.3 IgG-VLDx2 (HC) (bispecific antibody)
heavy: not shown
light: DIELTQSPASLSASVGETVTITCRASGNIHNYLAWYQQKQGKSPQLLVYYTTTLADGVPSRFSGSGSGTQYSLKINSLQPEDFGSYYCQHFWSTPRTFGGGTKLELKRTVAAPSVFIFPPSDEQLKSGTASVVCLLNNFYPREAKVQWKVDNALQSGNSQESVTEQDSKDSTYSLSSTLTLSKADYEKHKVYACEVTHQGLSSPVTKSFNRGEC
notes: unfused kappa light chain; also called bi-specific-D1.3 IgG-VLDx2 (HC)
Kd [2]: 5.44 nM | koff [2]: 0.0028 s⁻¹ | kon [2]: 516000 M⁻¹ s⁻¹

B7: D1.3 Fab-VLDx1 (HC) (bispecific antibody)
heavy: EVKLQESGPGLVAPSQSLSITCTVSGFSLTGYGVNWVRQPPGKGLEWLGMIWGDGNTDYNSALKSRLSISKDNSKSQVFLKMNSLHTDDTARYYCARERDYRLDYWGQGTTVTVSSASTKGPSVFPLAPSSKSTSGGTAALGCLVKDYFPEPVTVSWNSGALTSGVHTFPAVLQSSGLYSLSSVVTVPSSSLGTQTYICNVNHKPSNTKVDKKVEPKSCSGGGGSGGGGSGGGGSGGGGSKAMHVAQPAVVLASSRGIASFVCEYASPGKYTEVRVTVLRQADSQVTEVCAATYMTGNELTFLDDSICTGTSSGNQVNLTIQGLRAMDTGLYICKVELMYPPPYYLGIGNGTQIYVIDPEPSPDSN
light: DIELTQSPASLSASVGETVTITCRASGNIHNYLAWYQQKQGKSPQLLVYYTTTLADGVPSRFSGSGSGTQYSLKINSLQPEDFGSYYCQHFWSTPRTFGGGTKLELKRTVAAPSVFIFPPSDEQLKSGTASVVCLLNNFYPREAKVQWKVDNALQSGNSQESVTEQDSKDSTYSLSSTLTLSKADYEKHKVYACEVTHQGLSSPVTKSFNRGEC
Kd [1]: 5.41 nM | koff [1]: 0.00285 s⁻¹ | kon [1]: 526000 M⁻¹ s⁻¹

Second part, the binder after the results:

Kd [2]: 5.47 nM | koff [2]: 0.0029 s⁻¹ | kon [2]: 530000 M⁻¹ s⁻¹
B2: D1.3 IgG-VLDx4 (HC+LC) (bispecific antibody)
heavy: not shown
light: DIELTQSPASLSASVGETVTITCRASGNIHNYLAWYQQKQGKSPQLLVYYTTTLADGVPSRFSGSGSGTQYSLKINSLQPEDFGSYYCQHFWSTPRTFGGGTKLELKRTVAAPSVFIFPPSDEQLKSGTASVVCLLNNFYPREAKVQWKVDNALQSGNSQESVTEQDSKDSTYSLSSTLTLSKADYEKHKVYACEVTHQGLSSPVTKSFNRGECSGGGGSGGGGSGGGGSGGGGSKAMHVAQPAVVLASSRGIASFVCEYASPGKYTEVRVTVLRQADSQVTEVCAATYMTGNELTFLDDSICTGTSSGNQVNLTIQGLRAMDTGLYICKVELMYPPPYYLGIGNGTQIYVIDPEPSPDSN
notes: also called IgG Imx4 (HC+LC); IgG Imx4 (HCLC)

Kd [2]: 24.5 nM | koff [2]: 0.004 s⁻¹ | kon [2]: 163000 M⁻¹ s⁻¹
B4: D1.3 IgG-VLDx2 (LC) (bispecific antibody)
heavy: not shown
light: DIELTQSPASLSASVGETVTITCRASGNIHNYLAWYQQKQGKSPQLLVYYTTTLADGVPSRFSGSGSGTQYSLKINSLQPEDFGSYYCQHFWSTPRTFGGGTKLELKRTVAAPSVFIFPPSDEQLKSGTASVVCLLNNFYPREAKVQWKVDNALQSGNSQESVTEQDSKDSTYSLSSTLTLSKADYEKHKVYACEVTHQGLSSPVTKSFNRGECSGGGGSGGGGSGGGGSGGGGSKAMHVAQPAVVLASSRGIASFVCEYASPGKYTEVRVTVLRQADSQVTEVCAATYMTGNELTFLDDSICTGTSSGNQVNLTIQGLRAMDTGLYICKVELMYPPPYYLGIGNGTQIYVIDPEPSPDSN
notes: unfused heavy chain; also called D1.3 IgG-VDLx2 (LC); bi-specific-D1.3 IgG-VLDx2 (LC)

binding result [3]: no binding
B5: D1.3 anti-lysozyme antibody [D1.3 IgG] (antibody, V domains shown)
VH: EVKLQESGPGLVAPSQSLSITCTVSGFSLTGYGVNWVRQPPGKGLEWLGMIWGDGNTDYNSALKSRLSISKDNSKSQVFLKMNSLHTDDTARYYCARERDYRLDYWGQGTTVTVSS
VL: DIELTQSPASLSASVGETVTITCRASGNIHNYLAWYQQKQGKSPQLLVYYTTTLADGVPSRFSGSGSGTQYSLKINSLQPEDFGSYYCQHFWSTPRTFGGGTKLELKR
notes: Full length IgG1 kappa, expressed in Expi293 cells; parent of all IgG-VLD fusions; also called D1.3 IgG alone (full length); D1.3 antibody
